We go through 16 molecules from US20230406951A1 (Pfizer, published 2023).

Positions count from the first letter of the chain named.

The experiment concerns the target T1, human TNFR2 (human, UniProt P20333 23-461).
T1 construct: expressed on the surface of CHO cells; also called HuTNFR2; TNFRSF1B
T1 sequence: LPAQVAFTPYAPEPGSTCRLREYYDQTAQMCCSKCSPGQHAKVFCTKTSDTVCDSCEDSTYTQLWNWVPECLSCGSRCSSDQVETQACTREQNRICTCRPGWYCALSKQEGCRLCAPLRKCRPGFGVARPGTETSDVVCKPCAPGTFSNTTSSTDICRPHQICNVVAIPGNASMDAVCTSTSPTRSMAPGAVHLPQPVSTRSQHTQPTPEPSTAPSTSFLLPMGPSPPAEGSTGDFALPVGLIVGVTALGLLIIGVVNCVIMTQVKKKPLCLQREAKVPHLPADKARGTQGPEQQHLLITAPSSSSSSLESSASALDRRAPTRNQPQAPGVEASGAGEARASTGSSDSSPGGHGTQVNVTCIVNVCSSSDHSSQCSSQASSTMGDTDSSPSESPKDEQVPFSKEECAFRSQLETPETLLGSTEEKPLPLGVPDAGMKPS
The experiment in a line: binding to human TNFR2 CHO cells.

B1: IgG 1918 (antibody, name in Kabat numbering, V domains shown)
VH: QVQLVQSGAEVKKPGASVKVSCKVSGFSFPSSGVDWVRQAPGQGLEWLGVTRGEGSTHYNQKFQGRVTITKDTSKSTVYMELSSLRSEDTAVYYCASGEWDEGFVYWGQGTLVTVSS
VL: DIQLTQSPSFLSASVGDRVTITCKASQNVGTAVAWYQQKPGKAPKLLIYAASTLQSGVPSRFSGSGSGTEFTLTISSLQPEDFATYYCQQYNSYPFGGGTKVEIKR
notes: IgG
For the molecule B1, the binding result is recorded as “no binding”.

B2: IgG 1979 (antibody, name in Kabat numbering, V domains shown)
VH: B1 VH with W100R
VL: B1 VL
notes: IgG
On to B2, for which the binding result is given as “no binding”.

B3: IgG 1978 (antibody, name in Kabat numbering, V domains shown)
VH: B1 VH with W100H
VL: B1 VL
notes: IgG
For B3, the binding result was “no binding”.

B4: IgG 1927 (antibody, name in Kabat numbering, V domains shown)
VH: B1 VH
VL: B1 VL with N92Y, Y94T
notes: IgG
Turning to B4, the binding result is given as “no binding”.

B5: IgG 1926 (antibody, name in Kabat numbering, V domains shown)
VH: B1 VH with R52K, E54Q
VL: B1 VL with N92Y, Y94T
notes: IgG
Turning to B5, the binding result was “no binding”.

B6: IgG 1931 (antibody, name in Kabat numbering, V domains shown)
VH: B1 VH with R52W, E54V, W100S, D101T
VL: B1 VL with N92Y, Y94T
notes: IgG
On to B6, for which the binding result is given as “no binding”.

B7: IgG 1921 (antibody, name in Kabat numbering, V domains shown)
VH: B1 VH with R52H, E54S
VL: B1 VL
notes: IgG
For B7, the binding result is reported as “no binding”.

B8: IgG 1980 (antibody, name in Kabat numbering, V domains shown)
VH: B1 VH with W100Q
VL: B1 VL
notes: IgG
Regarding B8, the binding result is “no binding”.

B9: IgG 1924 (antibody, name in Kabat numbering, V domains shown)
VH: B1 VH with R52W, E54V, W100R
VL: B1 VL
notes: IgG
In the case of B9, the binding result is given as “no binding”.

B10: IgG 1934 (antibody, name in Kabat numbering, V domains shown)
VH: B1 VH with R52W, E54V, W100Q
VL: B1 VL with N92Y, Y94T
notes: IgG
In the case of B10, the binding result was “no binding”.

B11: IgG 1922 (antibody, name in Kabat numbering, V domains shown)
VH: B1 VH with R52W, E54V, W100S, D101T
VL: B1 VL
notes: IgG
As for B11, the binding result was “no binding”.

B12: IgG 1925 (antibody, name in Kabat numbering, V domains shown)
VH: B1 VH with R52W, E54V, W100Q
VL: B1 VL
notes: IgG
Regarding B12, the binding result is “no binding”.

B13: IgG 1973 (antibody, name in Kabat numbering, V domains shown)
VH: B1 VH with R52K, E54Q, W100S, D101T
VL: B1 VL
notes: IgG
With B13, the binding result is reported as “no binding”.

B14: IgG 1977 (antibody, name in Kabat numbering, V domains shown)
VH: B1 VH with W100S, D101T
VL: B1 VL
notes: IgG
As to B14, the binding result is given as “no binding”.

B15: IgG 1932 (antibody, name in Kabat numbering, V domains shown)
VH: B1 VH with R52W, E54V, W100H
VL: B1 VL with N92Y, Y94T
notes: IgG
With B15, the binding result is “no binding”.

B16: IgG 1933 (antibody, name in Kabat numbering, V domains shown)
VH: B1 VH with R52W, E54V, W100R
VL: B1 VL with N92Y, Y94T
notes: IgG
Take B16: the binding result was “no binding”.
